According to the Immune Epitope Database (IEDB):
One block for each sequence: values may come before it.

How the values were obtained:
[1] = molecular target: HLA-A*02:03; assay: IEDB peptide-MHC binding, purified MHC/competitive/radioactivity; filed as Kd, often an IC50 or EC50 that approximates it; ≥ and ≤ were set here for values at or beyond the usual limits of such assays
[2] = molecular target: HLA-A*02:02; assay: as above
[3] = molecular target: HLA-A*02:06; assay: as above
[4] = molecular target: HLA-A*02:01; assay: IEDB peptide-MHC binding, purified MHC/direct/fluorescence; filed as Kd, often an IC50 or EC50 that approximates it; ≥ and ≤ were set here for values at or beyond the usual limits of such assays; conditions: source organism: Mammarenavirus lassaense
[5] = source organism: Dengue virus 4 Philippines/H241/1956
[6] = source organism: Vaccinia virus WR
[7] = source organism: SARS coronavirus Tor2
[8] = source organism: Mammarenavirus tacaribeense
[9] = source organism: Mammarenavirus whitewaterense

Sequence: ILNAHEDGV
Kd [1, 5]: 93.2 nM

Sequence: WLRAKRKPAM
Kd [2, 6]: 4670 nM | Kd [1, 6]: ≥ 20100 nM | Kd [3, 6]: 11900 nM

Sequence: SVDIETAIRA
Kd [2, 6]: 2830 nM | Kd [1, 6]: 7620 nM | Kd [3, 6]: 1030 nM

Sequence: ALWDSNFFT
Kd [2, 6]: 1060 nM | Kd [1, 6]: ≥ 28200 nM | Kd [3, 6]: ≥ 23100 nM

Sequence: LIASLVMLLV
Kd [1, 5]: 64.7 nM

Sequence: GLYIPGTSV
Kd [2, 6]: 111 nM | Kd [1, 6]: 16.6 nM | Kd [3, 6]: 1740 nM

Sequence: FLCLFLLPSL
Kd [2, 7]: 0.531 nM | Kd [1, 7]: 2.86 nM | Kd [3, 7]: 0.373 nM

Sequence: CVSNLDISSV
Kd [2, 6]: 51.8 nM | Kd [1, 6]: 2.3 nM | Kd [3, 6]: 47.9 nM

Sequence: ETIQKDINI
Kd [2, 6]: ≥ 36600 nM | Kd [1, 6]: ≥ 50800 nM | Kd [3, 6]: ≥ 34900 nM

Sequence: RIITILQDIV
Kd [2, 6]: 595 nM | Kd [1, 6]: 209 nM | Kd [3, 6]: 94.8 nM

Sequence: EMVEYLENQL
Kd [2, 6]: 212 nM | Kd [1, 6]: 209 nM | Kd [3, 6]: 420 nM

Sequence: TLKDAMLQL
Kd [4]: 116 nM

Sequence: NVDVGCLLT
Kd [2, 6]: 9850 nM | Kd [1, 6]: 14000 nM | Kd [3, 6]: ≥ 64500 nM

Kd ([1]; source organism: Homo sapiens): 70.2 nM
Sequence: FMECNLNELV

Sequence: MNNVVQALT
Kd [2, 8]: 2280 nM | Kd [1, 8]: ≥ 21500 nM | Kd [3, 8]: ≥ 77000 nM

Sequence: DIKYISRDEL
Kd [2, 6]: 2550 nM | Kd [1, 6]: 9570 nM | Kd [3, 6]: 2060 nM

Sequence: MVMCGGSLYV
Kd [2, 7]: 15.1 nM | Kd [1, 7]: 10.3 nM | Kd [3, 7]: 13.2 nM

Sequence: SLIGLTARA
Kd ([1]; source organism: Dengue virus 1 Brazil/97-11/1997): 4.13 nM

Sequence: KIQLFSDFTI
Kd [2, 6]: ≥ 70000 nM | Kd [1, 6]: ≥ 70400 nM | Kd [3, 6]: ≥ 69800 nM

Sequence: DVQRTRCKYV
Kd [2, 6]: 1070 nM | Kd [1, 6]: 6470 nM | Kd [3, 6]: 9510 nM

Sequence: IMEIVSHLRA
Kd [2, 6]: 955 nM | Kd [1, 6]: 396 nM | Kd [3, 6]: 4410 nM

Sequence: ALKNSQAEL
Kd [2, 6]: 70.9 nM | Kd [1, 6]: 16.8 nM | Kd [3, 6]: ≥ 32900 nM

Sequence: IMRNFLRSIA
Kd [2, 6]: 59.9 nM | Kd [1, 6]: 122 nM | Kd [3, 6]: 544 nM

Sequence: SQAKKPEVRI
Kd [2, 6]: 10700 nM | Kd [1, 6]: 2370 nM | Kd [3, 6]: 5860 nM

Sequence: FVATFRDMLL
Kd [2, 6]: 0.697 nM | Kd [1, 6]: 17.6 nM | Kd [3, 6]: 4.36 nM

Sequence: TVGMSIVCIV
Kd [2, 6]: 528 nM | Kd [1, 6]: 468 nM | Kd [3, 6]: 200 nM

Sequence: VMDTLNGIMM
Kd [2, 6]: 7.64 nM | Kd [1, 6]: 5160 nM | Kd [3, 6]: 403 nM

Sequence: MLIIFWFSL
Kd [2, 7]: 132 nM | Kd [1, 7]: 13000 nM | Kd [3, 7]: 490 nM

Sequence: VIPFDDIVRT
Kd [2, 6]: ≥ 62700 nM | Kd [1, 6]: ≥ 50300 nM | Kd [3, 6]: 18200 nM

Sequence: TIAHINTLI
Kd [2, 6]: 21.4 nM | Kd [1, 6]: 20 nM | Kd [3, 6]: 571 nM

Sequence: NVSRVVECLT
Kd [2, 6]: 4660 nM | Kd [1, 6]: 14300 nM | Kd [3, 6]: ≥ 10000 nM

Sequence: LMELPVKTDI
Kd [2, 6]: 1510 nM | Kd [1, 6]: 986 nM | Kd [3, 6]: 12900 nM

Sequence: LNASYITPYV
Kd [2, 9]: 33.2 nM | Kd [1, 9]: 1070 nM | Kd [3, 9]: 37.7 nM

Sequence: YVVIVENDNV
Kd [2, 6]: 2330 nM | Kd [1, 6]: 11000 nM | Kd [3, 6]: 59.7 nM

Sequence: TLLCVLAALV
Kd [2, 7]: 4.61 nM | Kd [1, 7]: 77.4 nM | Kd [3, 7]: 64.6 nM

Sequence: FLYIIKLVFL
Kd [2, 7]: 7.28 nM | Kd [1, 7]: 22.4 nM | Kd [3, 7]: 865 nM

Sequence: KMFESTYRGA
Kd ([1]; source organism: Dengue virus 4 Dominica/814669/1981): 10.4 nM

Sequence: ELVMDKNHAI
Kd [2, 6]: 14200 nM | Kd [1, 6]: ≥ 70400 nM | Kd [3, 6]: ≥ 69800 nM

Sequence: PTIEDDKIVT
Kd [2, 6]: 13800 nM | Kd [1, 6]: ≥ 20600 nM | Kd [3, 6]: ≥ 69800 nM

Sequence: GVSGLYIPGT
Kd [2, 6]: 140 nM | Kd [1, 6]: 2150 nM | Kd [3, 6]: 31.7 nM

Sequence: DITNILGGVL
Kd [2, 6]: 12300 nM | Kd [1, 6]: 3680 nM | Kd [3, 6]: 18900 nM

Sequence: KVTVPTNDHI
Kd [2, 6]: 4710 nM | Kd [1, 6]: 1240 nM | Kd [3, 6]: 3600 nM

Sequence: AILHNIYRL
Kd [2, 6]: 106 nM | Kd [1, 6]: 814 nM | Kd [3, 6]: 43.8 nM

Sequence: RLRYNLCKYL
Kd [2, 6]: 261 nM | Kd [1, 6]: 0.304 nM | Kd [3, 6]: 15700 nM

Sequence: YVSPTEMVDV
Kd [2, 6]: 63.3 nM | Kd [1, 6]: 49.8 nM | Kd [3, 6]: 5.16 nM

Sequence: LTNAISSRV
Kd [2, 6]: 146 nM | Kd [1, 6]: 18.6 nM | Kd [3, 6]: 145 nM

Sequence: NIYRLFTRCA
Kd [2, 6]: 9890 nM | Kd [1, 6]: 138 nM | Kd [3, 6]: 22.9 nM

Sequence: VQYENLKYTV
Kd ([3]; source organism: Dengue virus 3 Martinique/1243/1999): 61 nM

Sequence: QQNNSFIIST
Kd [2, 6]: 7000 nM | Kd [1, 6]: 5040 nM | Kd [3, 6]: 5710 nM

Sequence: NVQSLIKFI
Kd [2, 6]: 12900 nM | Kd [1, 6]: 6020 nM | Kd [3, 6]: 10500 nM

Sequence: YVGDTSMMVI
Kd [2, 6]: 408 nM | Kd [1, 6]: 220 nM | Kd [3, 6]: 324 nM

Sequence: SILNNPVDT
Kd [2, 6]: ≥ 47100 nM | Kd [1, 6]: ≥ 30600 nM | Kd [3, 6]: 14200 nM

Sequence: YTFAISYCRA
Kd [2, 6]: 325 nM | Kd [1, 6]: 37.6 nM | Kd [3, 6]: 37.4 nM
